# In patent US20130078247A1 (Boehringer Ingelheim, published 2013):
# Substitutions are numbered along the chain they refer to.
# B1: DLLBII17B03 (VHH)
# VHH: EVQLVESGGGLVQPGGSLRLSCAASGFTFENYALGWFRQAPGKEREWVSCISSSDGTTYYADSVKGRFTISRDNVKNTVYLQMNRLKPEDTAIYYCALSLGSSWCAYDYWGQGTQVTVSS
# notes: also called DLLBII17B3; not shown: C-terminal c-myc and His6 tags
# B2: DLLBII5B11 (VHH)
# VHH: EVQLVESGGGLVQPGGSLRLSCAISGFTLDLHVIGWLRQAPGKEREWVSCISSSDGSTYYADSVKGRFTISRDNAKNTVYLQMNSLKPEDTAVYYCAAPWDSWYCGIGNDYDYWGQGTQVTVSS
# notes: also called DLLBII05B11; not shown: C-terminal c-myc and His6 tags
# B3: DLLBII28B06 (VHH)
# VHH: EVQLVESGGGLVQAGGSLRLSCAASGSTFSTYAMGWYRQDPGNQRELVAAISSDGSTHYADSVKGRFTISRDNAKNTVYLQMNSLKPEDTAVYYCYAPVKVAGLEYDYWGQGTQVTVSS
# notes: also called DLLBII28B6; not shown: C-terminal c-myc and His6 tags
# B4: DLLBII33C05 (VHH)
# VHH: EVQLVESGGGLVQAGGSLRLSCAASGFTLDNYVIGWFRQAPGKEREEVSCISSSGGSTDYLDSVKGRFTISRDNAKNTVYLQMNSLKPEDTAVYYCAADSLPCYYDKMVYDYWGQGTQVTVSS
# notes: also called DLLBII33C5; not shown: C-terminal c-myc and His6 tags
# B5: DLLBII19F04 (VHH)
# VHH: EVQLVESGGGLVQAEGSLRLSCAASGSTFSTYAMAWYRQAPGKQRELVAGISFDGSTHYAESVKGRFTISRDDAKNTVSLQMNSLKPEDAAVYYCYSVHPSTGFGSWGQGTQVTVSS
# notes: also called DLLBII19F4; not shown: C-terminal c-myc and His6 tags
# B6: DLLBII8A09 (VHH)
# VHH: EVQLVESGGGLVQPGGSLRLSCAASGFTLDYYNIGWFRQAPGKEREWVSCINSSDGSTYYADSVKGRFTISRDNAKNTVYLQMNSLKPEDTAVYYCAAPFAYYSNLCGVNGYDYWGQGTQVTVSS
# notes: also called DLLBII08A09; not shown: C-terminal c-myc and His6 tags
# B7: DLLBII19F12 (VHH)
# VHH: EVQLVESGGGLVQAGGSLRLSCTASGSTFTSYAMGWYRQAPGKQRELVAAISSDDSTYYADCVKGRFTISRDNAKNTVYLQMNSLKPEDTAVYYCNAPHSDYDEEAPSDFGSWGQGTQVTVSS
# notes: not shown: C-terminal c-myc and His6 tags
# B8: DLLBII8C11 (VHH)
# VHH: EVQLVESGGGLVQAGGSLRLSCAASGFTFDDYAIGWFRQAPGKEREGVSCISSHDRTTYYADSVKGRFTISSDNAKNTVYLQMNSLKPEDTAVYYCAADPLVCGYNDPRLADYWGQGTQVTVSS
# notes: also called DLLBII08C11; not shown: C-terminal c-myc and His6 tags
# B9: DLLBII6B11 (VHH)
# VHH: EVQLVESEGGLVQAGGSLRLSCAASGSTFSSYAMGWYRQAPGKQRELVAVISNGGITNYPNSVKGRFTISRDNAKNTVYLQMNSLKPEDTAVYYCFYSGSYYYPTDVHEYDYWGQGTQVTVSS
# notes: also called DLLBII06B11; not shown: C-terminal c-myc and His6 tags
# B10: DLLBII7B05 (VHH)
# VHH: EVQLVESGGGLVQAGGSLRLSCAASGFALDYYAVGWFRQAPGKEREGVSCISSRGGSTFYADSVKGRFTTSRNNAKNTVYLQMNSLKPEDTAVYYCAAHPLQNCCGGSAYASPEAVYEYWGQGTQVTVSS
# notes: also called DLLBII7B5; DLLBII07B05; not shown: C-terminal c-myc and His6 tags
# B11: DLLBII56A09 (VHH, not shown: small tags and cut ends)
# VHH: EVQLVESGGGLVQPGGSLRLSCAASGFTFDDYAIGWFRQAPGKEPEGISCISSSGGITYYADSVKGRFTTSRDNAKNTVYLQMNSLKPEDTAVYYCATPGIAACRGIHYTGQGTQVTVSS
# B12: DLLBII129B05 (VHH)
# VHH: EVQLVESGGGLVQAGGSLRLSCAASGRTFSSYAMAWYRQAPGKEREYVAAIRWSGGTAYYADSVQGRFTISRDNAKNTVYLQMNSLKPEDTAVYYCANRAPDTRLAPYEYDHWGQGTQVTVSS
# notes: not shown: C-terminal c-myc tag and (His)6 tag
# B13: DLLBII129D08 (VHH)
# VHH: B12 VHH with A106E, E109L, H112Y
# notes: as for B12
# B14: DLLBII129E11 (VHH)
# VHH: B12 VHH with A106R, E109L, H112Y
# notes: as for B12
# B15: DLLBII015 (VHH)
# VHH: EVQLVESGGGLVQPGGSLRLSCAASGFTIGSYDMSWVRRSPGKGPEWVSAINSGGGSTYYADYVKGRFTISRDNAKNTLYLQMNSLKPEDTAVYYCAADRYIWARQGEYWGAYAYDYWGQGTQVTVSS
# notes: as for B12
# B16: DLLBII133A09 (VHH)
# VHH: B15 VHH with I29F
# notes: as for B12
# B17: DLLBII133G05 (VHH)
# VHH: B15 VHH with I29F, A61T
# notes: as for B12
# B18: DLLBII136C07 (VHH)
# VHH: B15 VHH with I29F, A50S, A114E
# notes: as for B12
# B19: DLLBII130D06 (VHH)
# VHH: B12 VHH with A23S, G56E, A106E, E109L
# B20: DLLBII130F06 (VHH)
# VHH: B12 VHH with H112Y
# notes: as for B12
# B21: DLLBII130E03 (VHH)
# VHH: B12 VHH with A106E
# Target: T1, recombinant human DLL4 extracellular domain, C-terminally His-tagged (R&D Systems) (human, UniProt Q9NR61 25-522, biotinylated in the competition assays (sites not given))
# T1 construct: also called rhDLL4; hDLL4; not shown: C-terminal His tag
# Assay: periplasmic extract; hDLL4 ELISA
# T1 sequence (Q9NR61 25-522): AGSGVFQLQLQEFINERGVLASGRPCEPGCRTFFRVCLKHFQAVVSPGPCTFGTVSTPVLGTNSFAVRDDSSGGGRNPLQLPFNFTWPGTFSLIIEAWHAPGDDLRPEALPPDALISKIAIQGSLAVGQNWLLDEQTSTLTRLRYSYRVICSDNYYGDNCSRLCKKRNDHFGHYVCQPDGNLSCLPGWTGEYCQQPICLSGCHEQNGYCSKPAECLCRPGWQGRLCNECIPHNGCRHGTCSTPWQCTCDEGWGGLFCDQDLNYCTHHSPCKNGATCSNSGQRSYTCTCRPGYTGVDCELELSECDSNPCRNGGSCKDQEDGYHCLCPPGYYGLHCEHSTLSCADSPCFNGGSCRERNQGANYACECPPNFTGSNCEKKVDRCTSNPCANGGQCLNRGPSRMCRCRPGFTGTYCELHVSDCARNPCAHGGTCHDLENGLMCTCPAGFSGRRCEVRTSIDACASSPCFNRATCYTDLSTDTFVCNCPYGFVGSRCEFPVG
row,Binder,% inhibition
1,B1,76%
2,B2,98%
3,B3,23%
4,B4,86%
5,B5,98%
6,B6,96%
7,B7,98%
8,B8,57%
9,B9,98%
10,B10,84%

# Target: T2, recombinant human DLL4 (human, UniProt Q9NR61 25-522)
# Assay: cell-based or functional assay
# T2 sequence (Q9NR61 25-522): as above
Binder,"IC50 (nM) in the DLL4 proliferation assay (HUVEC, experiment 1)","IC50 (nM) in the DLL4 proliferation assay (HUVEC, experiment 2)"
B11,11 nM,6.8 nM

# Target: T3, human DLL1 (human, UniProt O00548 18-545, limits assumed)
# T3 construct: also called hDLL1; rhDLL1
# T3 sequence (looked up): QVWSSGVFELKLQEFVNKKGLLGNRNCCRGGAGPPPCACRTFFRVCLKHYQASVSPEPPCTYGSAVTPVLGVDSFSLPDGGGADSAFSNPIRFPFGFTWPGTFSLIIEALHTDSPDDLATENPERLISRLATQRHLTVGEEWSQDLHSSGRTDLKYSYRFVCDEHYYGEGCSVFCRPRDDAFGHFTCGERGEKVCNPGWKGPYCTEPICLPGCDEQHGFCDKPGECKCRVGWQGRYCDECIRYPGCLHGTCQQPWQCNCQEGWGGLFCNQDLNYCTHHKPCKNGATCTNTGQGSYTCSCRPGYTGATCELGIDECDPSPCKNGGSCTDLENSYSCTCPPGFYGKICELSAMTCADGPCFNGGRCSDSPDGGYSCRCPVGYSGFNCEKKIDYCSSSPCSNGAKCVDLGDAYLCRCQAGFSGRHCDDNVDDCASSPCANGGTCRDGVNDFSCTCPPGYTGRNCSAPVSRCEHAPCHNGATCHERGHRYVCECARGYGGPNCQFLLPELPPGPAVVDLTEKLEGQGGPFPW
# Assay: binding ELISA, coated hDLL1
# Method: (§1) Absence of binding to homologous ligands human DLL1 and human Jagged-1 is assessed via solid phase binding assay (ELISA). In brief, human DLL1 (Alexis, San Diego, Calif., USA) and human Jagged-1 (Alexis, San Diego, Calif., USA) are coated overnight at 4° C. at 1 μg/mL in a 96-well MaxiSorp plate (Nunc, Wiesbaden, Germany). Wells are blocked with a casein solution (1% in PBS). VHHs are applied as dilution series and binding is detected using a mouse anti-myc (Roche) and an anti-mouse-AP conjugate (Sigma, St. Louis, Mo., USA).
row,Binder,binding result
1,B12,no binding
2,B13,no binding
3,B14,no binding
4,B15,no binding
5,B16,no binding
6,B17,no binding
7,B18,no binding

# Target: T1, recombinant human DLL4 extracellular …
# Assay: periplasmic extract; hDLL4/hNotch1 AlphaScreen
# Method: To this mixture, the acceptor beads and the streptavidin donor beads are added and further incubated for 1 hour at room temperature. Fluorescence is measured by reading plates on the Envision Multilabel Plate reader (Perkin Elmer, Waltham, Mass., USA) using an excitation wavelength of 680 nm and an emission wavelength of 520 nm.
row,Binder,% inhibition
1,B1,77%
2,B3,54%
3,B4,75%
4,B5,95%
5,B7,98%

# Target: T4, human Jagged-1 (human, UniProt P78504 34-1067, limits assumed)
# T4 construct: also called hJag-1; hJAG1
# Assay: binding ELISA, coated hJagged-1
# Method: as §1
row,Binder,binding result
1,B12,no binding
2,B13,no binding
3,B14,no binding
4,B15,no binding
5,B16,no binding
6,B17,no binding
7,B18,no binding

# Target: T2, recombinant human DLL4
# Assay: ProteOn off-rate screen, periplasmic extract, hDLL4 on chip
# Method: (§2) In a first cycle, amino acid substitutions are introduced randomly in both framework (FW) and complementary determining regions (CDR) using the error-prone PCR method. […] After a polish step, PCR products are inserted via unique restriction sites into a vector designed to facilitate phage display of the VHH library. […] No selections on murine DLL4 are included as (conservation of) cross-reactivity is assessed at the screening level. Individual mutants are produced as recombinant protein using an expression vector derived from pUC119, which contains the LacZ promoter, a resistance gene for ampicillin, a multiple cloning site and an ompA leader sequence (pAX50). E. coli TG1 cells are transformed with the expression vector library and plated on agar plates (LB+Amp+2% glucose). Single colonies are picked from the agar plates and grown in 1 mL 96-deep-well plates. VHH expression is induced by adding IPTG (1 mM). Periplasmic extracts (in a volume of ˜80 uL) are prepared according to standard methods and screened for binding to recombinant human and mouse DII4 in a ProteOn (BioRad, Hercules, Calif., USA) off-rate assay. […] Periplasmic extract of affinity matured clones is diluted 1/10 and injected across the “analyte channels” A1-A6. An average off-rate is calculated of the wild type clones present in the plate and served as a reference to calculate off-rate improvements.
row,Binder,fold (off-rate improvement over DLLBII101G08)
1,B12,24 fold
2,B13,38 fold
3,B19,26 fold
4,B20,27 fold
5,B21,24 fold
6,B14,28 fold

# Target: T5, recombinant mouse DLL4 (mouse, UniProt Q9JI71 27-532)
# T5 construct: extracellular domain; also called rmDLL4; mDLL4; not shown: C-terminal His tag
# Assay: ProteOn off-rate screen, periplasmic extract, mDLL4 on chip
# Method: as §2
# T5 sequence (Q9JI71 27-532): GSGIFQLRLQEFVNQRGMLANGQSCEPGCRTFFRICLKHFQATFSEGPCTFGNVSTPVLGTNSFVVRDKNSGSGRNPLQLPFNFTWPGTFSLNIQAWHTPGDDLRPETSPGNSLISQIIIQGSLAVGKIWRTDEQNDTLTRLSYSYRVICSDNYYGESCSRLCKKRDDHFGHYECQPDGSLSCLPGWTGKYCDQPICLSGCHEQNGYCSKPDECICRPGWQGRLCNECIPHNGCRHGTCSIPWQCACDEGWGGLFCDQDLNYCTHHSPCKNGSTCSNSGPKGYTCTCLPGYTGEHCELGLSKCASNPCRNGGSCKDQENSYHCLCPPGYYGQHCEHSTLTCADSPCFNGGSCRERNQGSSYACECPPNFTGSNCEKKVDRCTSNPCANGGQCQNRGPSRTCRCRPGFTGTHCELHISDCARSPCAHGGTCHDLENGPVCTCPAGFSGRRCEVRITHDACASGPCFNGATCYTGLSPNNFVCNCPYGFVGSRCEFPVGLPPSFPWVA
row,Binder,fold (off-rate improvement over DLLBII101G08)
1,B12,20 fold
2,B13,35 fold
3,B19,16 fold
4,B20,19 fold
5,B21,18 fold
6,B14,26 fold
